In experiment [1] the test system is Raw 264.7 cells. Kind of experiment: Osteoclastogenesis (TRAP staining) and bone resorption (pits) on osteologic slides, RANK ligand-stimulated. It is filed as cell-based, Mouse. The settings on record: Raw 264.7 cells + 100 ng/ml murine soluble RANK ligand, 6 days; GM6001 5, 10, 25 μM; 539A-M0240-B03 10, 50 μg/ml; 539A-M0237-D02 10, 100 μg/ml; dose-dependent; data not shown. The protocol:
Cells. […] Cells between passage 3-7 were used in this study.
Materials. […] Tartrate-resistant acid phosphatase (TRAP) staining kit was obtained from KAMIYA BIOMEDICA COMPANY™, Seattle Wash. (Catalog #KT-008). GM6001 was obtained from MILLIPORE™.
Methods. Approximately 2000 Raw 264.7 cells per slide were seeded onto osteologic multitest slides with complete growth medium. […] The slides were then incubated at 37° C. for 6 days, replacing fresh media on day 3 as described above. At the end of incubation time, one side of the slide was stained for TRAP and the other side of the slide was bleached (10% bleach), washed several times with water, and air dried. The slides were then viewed under the microscope for either multinucleated TRAP positive cells or resorbed areas (pits). Cells incubated with media only and recombinant osteoprotegerin (rH OPG) (100 ng/ml) served as negative and positive controls, respectively.

Experiment [2] concerns PC-3 prostate cancer cells. Kind of experiment: PC-3 prostate cancer model, intra-tibial inoculation, osteolytic lesions. It is filed as in vivo. The settings on record: mice, intra-tibial PC-3 cells; 10 mg/kg Q2D for 14 days, started 3 days after inoculation; vs PBS control; X-ray and bone histomorphometric analysis. The protocol: PC-3 prostate cancer cells were inoculated intra-tibially into mice. Treatment was initiated 3 days after intra-tibial inoculation of the cells. DX-2400 (10 mg/kg) and a PBS control were administered Q2D for 14 days.

In experiment [3] the target is MMP-14 (Homo sapiens, UniProt P50281). Kind of experiment: MMP-14 inhibition (statement, no method given). It is filed as biochemical.
For experiment [4], the target named is mouse MMP-9 (Mus musculus, UniProt P41245). Nature of the experiment: Inhibition of mouse MMP-9 activity (statement, no method given). It is filed as biochemical.
Chain of mouse MMP-9 (P41245 108-730): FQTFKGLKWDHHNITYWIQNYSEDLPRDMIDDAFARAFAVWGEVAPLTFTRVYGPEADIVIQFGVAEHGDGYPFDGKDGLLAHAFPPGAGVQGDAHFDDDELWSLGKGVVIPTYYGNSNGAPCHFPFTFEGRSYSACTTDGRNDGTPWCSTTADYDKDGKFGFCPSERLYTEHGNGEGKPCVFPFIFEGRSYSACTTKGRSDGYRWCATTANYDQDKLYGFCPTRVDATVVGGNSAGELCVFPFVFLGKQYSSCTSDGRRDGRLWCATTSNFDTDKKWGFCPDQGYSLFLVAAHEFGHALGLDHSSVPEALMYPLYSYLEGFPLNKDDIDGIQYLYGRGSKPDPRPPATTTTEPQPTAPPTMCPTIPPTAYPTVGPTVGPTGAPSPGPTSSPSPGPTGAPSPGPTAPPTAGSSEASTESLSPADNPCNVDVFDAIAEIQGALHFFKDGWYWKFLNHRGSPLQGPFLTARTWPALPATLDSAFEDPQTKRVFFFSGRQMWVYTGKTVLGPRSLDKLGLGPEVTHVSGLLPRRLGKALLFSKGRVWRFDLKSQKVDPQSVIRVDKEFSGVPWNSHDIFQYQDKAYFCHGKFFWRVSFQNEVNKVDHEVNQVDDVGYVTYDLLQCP
In experiment [5] the target is T1, MMP-9 (Homo sapiens, UniProt P14780). Nature of the experiment: Inhibition of human MMP-9 activity (statement, no method given). It is filed as biochemical.
Target sequence in this assay (P14780 94-707): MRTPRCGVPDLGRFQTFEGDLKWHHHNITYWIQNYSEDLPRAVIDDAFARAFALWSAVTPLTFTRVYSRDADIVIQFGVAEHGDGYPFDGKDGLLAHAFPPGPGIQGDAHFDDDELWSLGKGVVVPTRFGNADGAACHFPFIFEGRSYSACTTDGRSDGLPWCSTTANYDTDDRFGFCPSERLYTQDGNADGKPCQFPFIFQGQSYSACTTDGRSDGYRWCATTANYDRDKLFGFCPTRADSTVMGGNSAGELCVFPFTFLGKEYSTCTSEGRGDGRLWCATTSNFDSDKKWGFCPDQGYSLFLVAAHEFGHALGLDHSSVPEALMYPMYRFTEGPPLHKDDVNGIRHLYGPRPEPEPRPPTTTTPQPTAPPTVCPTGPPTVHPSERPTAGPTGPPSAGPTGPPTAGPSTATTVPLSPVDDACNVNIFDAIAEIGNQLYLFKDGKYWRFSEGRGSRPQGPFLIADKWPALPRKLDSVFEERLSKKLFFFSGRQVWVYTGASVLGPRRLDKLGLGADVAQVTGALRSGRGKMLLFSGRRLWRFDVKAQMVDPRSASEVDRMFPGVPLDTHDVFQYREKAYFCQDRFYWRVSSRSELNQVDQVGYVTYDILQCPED
Experiment [6] addresses T1, MMP-9. Kind of experiment: MMP-9 inhibition, selectivity (statement, no method given). It is filed as biochemical.
Target sequence in this assay (P14780 94-707, species assumed): as the sequence (P14780 94-707) above

With `CNC(=O)[C@H](Cc1c[nH]c2ccccc12)NC(=O)[C@@H](CC(=O)NO)CC(C)C` [GM6001, reference compound], in experiment [1], the “effect on bone resorption (number of resorbed areas, pits)” value is listed as “inhibitory effects” and the “effect on osteoclastogenesis (TRAP-positive staining)” value is given as “inhibitory effects”.

B1: DX-2400: exemplary MMP-14 antibody; VH SEQ ID NO: 22, VL SEQ ID NO: 23; shares HC and LC CDRs with M0038-F01 (antibody, V domains shown)
VH: EVQLLESGGGLVQPGGSLRLSCAASGFTFSLYSMNWVRQAPGKGLEWVSSIYSSGGSTLYADSVKGRFTISRDNSKNTLYLQMNSLRAEDTAVYYCARGRAFDIWGQGTMVTVSS
VL: DIQMTQSPSSLSASVGDRVTITCRASQSVGTYLNWYQQKPGKAPKLLIYATSNLRSGVPSRFSGSGSGTDFTLTISSLQPEDFATYYCQQSYSIPRFTFGPGTKVDIK
notes: exemplary MMP-14 antibody; shares HC and LC CDRs with M0038-F01
For the molecule B1, the “reduction of the area of the osteolytic lesions” value in experiment [2] is given as “about 3 fold”. For the same molecule, the “selectivity of MMP-14 inhibition” value in experiment [3] is listed as “selective inhibitor of MMP-14”.

B2: 539A-M0240-B03: exemplary MMP-9 antibody; LC CDRs SEQ ID NO: 14-16, HC CDRs SEQ ID NO: 17-19 (antibody, V domains shown)
VL: QYELTQPRSVSGSPGQSVTISCTGTSSDVGGYNYVSWYQQHPGKAPKLMIYDVSKRPSGVPDRFSGSKSGNTASLTISGLQAEDEADYYCCSYAGSYTLVFGGGTKLTVL
VH: EVQLLESGGGLVQPGGSLRLSCAASGFTFSTYQMVWVRQAPGKGLEWVSVIYPSGGPTVYADSVKGRFTISRDNSKNTLYLQMNSLRAEDTAVYYCARGEDYYDSSGPGAFDIWGQGTMVTVSS
As to B2, in experiment [1], the “effect on bone resorption (number of resorbed areas, pits)” value was “inhibitory effects” and the “effect on osteoclastogenesis (TRAP-positive staining)” value is “inhibitory effects”. In experiment [4], the “effect on activity of mouse MMP-9” value was “can decrease or inhibit the activity”. The “effect on activity of human MMP-9” value in experiment [5] is “can decrease or inhibit the activity”. For the same molecule, the “selectivity of MMP-9 inhibition” value in experiment [6] is “selective inhibitor of MMP-9”.

For the origin of these results see patent US8501181B2, “Compositions and methods for treating osteolytic disorders comprising MMP-14 binding proteins” (Dyax Corp., priority 2007, dated 2013).
